Assay results published in patent US9873733B2, “Anti-staphylococcal antibodies” (priority 2012, dated 2018).

Columns and labels:
[1] = target: cyclic peptide representing loop 4 of MprF (Staphylococcus aureus, UniProt Q2G2M2); settings: IgG in PBS; biotinylated cyclic peptide 5 μg/ml
Experimental: The IgGs were tested for binding to the antigen, which was used in their selection. Also binding to other MprF-peptides was tested to check for selectivity.
For ELISAs with cyclic antigen, the biotinylated cyclic peptides (final conc. 5 μg/ml) were incubated with IgGs in PBS. Then the mix was transferred to a pre-blocked Neutravidin plate (Thermo Scientific), incubated and then the plate was washed with PBS containing 0.5% of TWEEN20. MprF-specific IgGs were detected using goat-anti-human IgG (Sigma).
In both cases washing was performed using PBST ([…] with 0.05% TWEEN20. Detection was performed using alkaline phosphatase coupled Goat anti-human IgG (Sigma Cat. # A-8542 and Attophos™ substrate Roche, Cat. #11681982001). Fluorescence was measured at an excitation of 440±25 nm and an emission of 550±35 nm. Full signal intensity is typically reached after 5-15 min at room temperature.

[2] = tested on: MprF on S. aureus (Protein A deletion mutant, delta spa); test: Whole cell ELISA on S. aureus; format: binding, Staphylococcus aureus; settings: E. coli as negative control
Experimental: (§1) The specificity of the purified antibodies was tested for binding to whole cell Staphylococcus aureus in an ELISA assay. Escherichia coli bacteria were used as a negative control.
(§2) For ELISA on S. aureus the Protein A deletion mutant (delta spa) or the mutant with an additional deletion in MprF (delta spa delta mprf) were grown to mid log phase, than washed in PBS and resuspended in saline to a final OD600 of 0.6. This bacterial culture was coated on Maxisorp plates (Nunc). Plates were blocked with 2% BSA/PBS and washed with TSB containing 0.5% TWEEN20.

[3] = tested on: S. aureus mutants lacking MprF expression (delta spa delta mprF); test: Whole cell ELISA on S. aureus mutant lacking MprF; format: binding, Staphylococcus aureus; settings: compared with delta spa
Experimental: as §1, §2

[4] = tested on: S. aureus SA113 Δspa; test: Killing of S. aureus by nisin with MprF antibodies; format: cell-based, Staphylococcus aureus; settings: antibody 100 μg/ml, 22.5 μg/ml nisin, 2 hours; anti-lysozyme antibody as control
Experimental: In this experiment killing of Staphylococcus aureus was tested. Nisin was used as an exemplary cationic antimicrobial compound. Nisin was tested in combination with selected antibodies of the present invention. An anti-lysozyme antibody was used as a negative control.
(§3) Overnight cultures of S. aureus SA113 Δspa were diluted in fresh MHB medium and adjusted to OD600 0.25 (˜1.5×10^7 cells). Antibodies were adjusted to a concentration of 1 mg/ml and 10 μl were applied per well of a 96 well plate and diluted in 90 μl of the adjusted cell suspension (final antibody concentration: 100 μg/ml). Cells were grown in the presence of anti-lysozyme antibody (control) or with the anti-MprF antibodies. Duplicates were employed for each assay. After 3 hours of incubation under shaking conditions at 37° C., optical density was determined, adjusted to OD600 0.025 in 500 μl ice cold PBS buffer. 80 μl of the adjusted cell suspension were diluted with 20 μl of antimicrobial substances to final concentrations of 22.5 μg/ml nisin. After incubation for 2 hours under shaking conditions at 37° C., the cell suspensions were diluted 1:2000 and 100 μl of each duplicate was plated in triplicates on TSB medium containing agar plates to obtain a representative value of bacterial survival. Cells treated without antimicrobial substance were set at 100% and survival values were calculated with cells treated with antimicrobial substances. At least three independent assays were employed.

[5] = tested on: S. aureus SA113 Δspa; test: Killing of S. aureus by daptomycin with MprF antibodies; format: cell-based, Staphylococcus aureus; settings: antibody 100 μg/ml, 12.5 μg/ml Daptomycin; anti-lysozyme antibody as control
Experimental: as §3
The previous experiment was repeated, but instead of nisin, daptomycin is used. […]

[6] = tested on: S. aureus SA113 Δspa; test: Killing of S. aureus by LL-37 with MprF antibodies; format: cell-based, Staphylococcus aureus; settings: antibody 100 μg/ml, 45.0 μg/ml LL-37; anti-lysozyme antibody as control
Experimental: as §3
The previous experiment was repeated, but instead of nisin LL-37 is used. […]

[7] = tested on: S. aureus SA113 Δspa (flippase reaction of MprF); test: Cytochrome C repulsion assay; format: cell-based, Staphylococcus aureus; settings: pre-incubation 3 hours, compared to anti-lysozyme antibodies
Experimental: The repulsion of positively charged cytochrome C has been repeatedly employed to investigate charge dependent cell surface modifications in bacteria, including the flippase reaction of MprF, which leads to increased positively charged lipids in the outer leaflet of the membrane and to increased repulsion of cytochrome C (Ernst et al., PLoS Pathogens 2009). Briefly, cells were grown in the presence of M-C4.1 or anti-lysozyme for 3 hours, followed by incubation with cytochrome C for 15 minutes and measurement of optical density of the supernatant in order to determine repulsion of positively charged cytochrome C. The established cytochrome C repulsion assay was scaled down to accommodate for the reduced amount of bacteria employed in the killing-assays.

[8] = tested on: S. aureus SA113 Δspa (MprF-mediated flipping of lysyl-phosphatidylglycerol); test: Annexin V assay; format: cell-based, Staphylococcus aureus; settings: flow cytometry; anti-lysozyme pre-treated cells set at 100%
Experimental: Annexin V binds preferentially to negatively charged phospholipids and is therefore a useful tool for measuring the relative content of MprF-mediated flipping of lysyl-phosphatidylglycerol, as translocation leads to reduced accessibility of negatively charged phospholipids in the outer leaflet of the membrane and therefore to reduced binding of annexin V. Cells (S. aureus SA113 Δspa) were grown in the presence of M-C4.1 or anti-lysozyme antibody and then treated with annexin V for 15 minutes before being analyzed by flow cytometry for surface-bound fluorophore (FL-4 channel). Data are expressed in relative fluorescence units and compared to cells pre-treated with anti-lysoyzme set at 100% fluorescence.

[9] = tested on: Staphylococcus aureus clinical isolate 703; test: Killing of clinical isolate 703 by daptomycin; format: cell-based; settings: 11 μg/ml daptomycin; anti-lysozyme antibody as control
Experimental: as §3
In this experiment killing of Staphylococcus aureus clinical isolate 703 (described in Jones et al., AAC 2008) by daptomycin in the presence of an MprF specific antibody was analyzed. […]

B1: M-C4.1: human IgG1 against cyclic peptide, loop 4 of MprF; VH1A kappa 1; VL Seq. ID: 44, VH Seq. ID: 45 (antibody, V domains shown)
VH: QVQLVQSGAEVKKPGSSVKVSCKASGGTFNSYAISWVRQAPGQGLEWMGGIIPIFGMATYAQKFQGRVTITADESTSTAYMELSSLRSEDTAVYYCARSLFGRAYWGQGTLVTVSS
VL: DIQMTQSPSSLSASVGDRVTITCRASQSISSFLAWYQQKPGKAPKLLIYDASSLQSGVPSRFSGSGSGTDFTLTISSLQPEDFATYYCLQADSTSYTFGQGTKVEIKRT
modifications: MC41 VH; MC41 VL
notes: human IgG1 against cyclic peptide, loop 4 of MprF; VH1A kappa 1; ID: 45
With B1 the “Specific binding to cyclic loop 4 peptide (ELISA)” value [1] was “specifically bind to cyclic loop 4 peptide in a dose-dependent manner”, the “Binding to whole cell S. aureus (ELISA)” value [2] was “detect MprF on S. aureus” and the “Binding to S. aureus mutants lacking MprF expression (ELISA)” value [3] was “significantly weaker binding”. The “Sensitivity of S. aureus towards nisin (killing, bacterial survival)” value [4] was “most pronounced effects”, the “Sensitivity of S. aureus towards daptomycin (killing)” value [5] was “increased the sensitivity of Staphylococcus aureus towards daptomycin” and the “Sensitivity of S. aureus towards LL-37 (killing)” value [6] was “increased the sensitivity of Staphylococcus aureus towards LL-37”. For the same molecule, the “Decreased repulsion of cytochrome C” value [7] was 40%, the “Increased binding of annexin V” value [8] was 70% and the “Susceptibility of S. aureus 703 to daptomycin (killing) with MprF antibody” value [9] was “restored susceptibility of S. aureus 703 bacteria to daptomycin”.
